{"source": "paper PMC8160820", "origin": "cited, not measured here", "molecular_target": "PEDF-R (Homo sapiens) (UniProt Q96AD5)", "sequence (Q96AD5 whole entry)": "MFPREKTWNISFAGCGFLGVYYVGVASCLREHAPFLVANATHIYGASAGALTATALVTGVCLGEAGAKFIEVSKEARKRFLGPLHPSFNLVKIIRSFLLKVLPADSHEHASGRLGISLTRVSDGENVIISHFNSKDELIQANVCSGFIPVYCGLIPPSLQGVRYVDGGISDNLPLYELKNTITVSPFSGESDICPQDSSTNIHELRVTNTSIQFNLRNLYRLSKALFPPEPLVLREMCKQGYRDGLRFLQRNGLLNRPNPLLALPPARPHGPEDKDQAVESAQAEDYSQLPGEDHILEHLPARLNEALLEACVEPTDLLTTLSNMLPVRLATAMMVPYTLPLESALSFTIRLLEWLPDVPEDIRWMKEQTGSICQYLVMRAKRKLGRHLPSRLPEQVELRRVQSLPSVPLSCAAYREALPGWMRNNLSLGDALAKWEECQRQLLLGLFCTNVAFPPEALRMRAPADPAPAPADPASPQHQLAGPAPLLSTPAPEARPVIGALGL", "data": [{"substance": "PEDF (from UniProt P36955)", "values": [{"measurement": "Kd", "result": 3, "unit": "nM"}]}]}
